In this assay the target is T1, IL17RA-SEFIR (SEFIR domain-containing fragment of human IL17RA, residues 351 to 616) (human, UniProt Q96F46 351-616).
T1 sequence (looked up): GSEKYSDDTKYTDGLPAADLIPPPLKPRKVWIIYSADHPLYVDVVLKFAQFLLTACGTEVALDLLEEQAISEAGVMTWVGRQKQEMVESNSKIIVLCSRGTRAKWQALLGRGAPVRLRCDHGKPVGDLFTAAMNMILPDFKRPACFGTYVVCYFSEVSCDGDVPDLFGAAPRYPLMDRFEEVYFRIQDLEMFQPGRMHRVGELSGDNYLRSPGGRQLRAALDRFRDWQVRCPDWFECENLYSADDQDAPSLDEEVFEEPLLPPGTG
The assay can be described thus: SPR. A general note: SPR reads the build-up and loss of mass on a sensor chip optically.

The record followed here is PMC3282585 (Science Signaling, 2011).

As for LDEDEHGLHTKY [CC′ loop peptide of the Act1 SEFIR domain], the binding result is listed as “binds”.
